{
  "source": "the supplement of paper PMC10567573",
  "parents": {"B1": {"name": "PTPRD (parent)", "chain": "FICQATGDPRPKIVWNKKGKKVSN"}},
  "data": [
    {"variants_of": "B1", "experiment": "protein stability index of a GFP-peptide fusion (GPS, HEK-293T) (PSI 1-6); higher = more stable", "conditions": "c terminus: a fixed tail appended", "values": [
      {"variant": "FICQATGDPRPKIHWNKKGKKVSN", "note": "[V14H]", "protein stability index": 2.27},
      {"variant": "FICQATGDPRPKIDWNKKGKKVSN", "note": "[V14D]", "protein stability index": 2.35},
      {"variant": "FICQATGDPRPKIEWNKKGKKVSN", "note": "[V14E]", "protein stability index": 2.7},
      {"variant": "FICQATGDPRPKIPWNKKGKKVSN", "note": "[V14P]", "protein stability index": 2.21},
      {"variant": "FICQATGDPRPKIGWNKKGKKVSN", "note": "[V14G]", "protein stability index": 2},
      {"variant": "FICQATGDPRPKIWWNKKGKKVSN", "note": "[V14W]", "protein stability index": 2.18},
      {"variant": "FICQATGDPRPKIQWNKKGKKVSN", "note": "[V14Q]", "protein stability index": 2.01},
      {"variant": "FICQATGDPRPKINWNKKGKKVSN", "note": "[V14N]", "protein stability index": 1.73},
      {"variant": "FICQATGDPRPKIMWNKKGKKVSN", "note": "[V14M]", "protein stability index": 1.67},
      {"variant": "FICQATGDPRPKITWNKKGKKVSN", "note": "[V14T]", "protein stability index": 2.5},
      {"variant": "FICQATGDPRPKIAWNKKGKKVSN", "note": "[V14A]", "protein stability index": 2.23},
      {"variant": "FICQATGDPRPKIRWNKKGKKVSN", "note": "[V14R]", "protein stability index": 1.78},
      {"variant": "FICQATGDPRPKIYWNKKGKKVSN", "note": "[V14Y]", "protein stability index": 1.59},
      {"variant": "FICQATGDPRPKIKWNKKGKKVSN", "note": "[V14K]", "protein stability index": 2.4},
      {"variant": "FICQATGDPRPKIIWNKKGKKVSN", "note": "[V14I]", "protein stability index": 2.23},
      {"variant": "FICQATGDPRPKISWNKKGKKVSN", "note": "[V14S]", "protein stability index": 2.27},
      {"variant": "FICQATGDPRPKIFWNKKGKKVSN", "note": "[V14F]", "protein stability index": 3.73},
      {"variant": "FICQATGDPRPWIVWNKKGKKVSN", "note": "[K12W]", "protein stability index": 1.6},
      {"variant": "FICQATGDPRPSIVWNKKGKKVSN", "note": "[K12S]", "protein stability index": 2.17},
      {"variant": "FICQATGDPRPAIVWNKKGKKVSN", "note": "[K12A]", "protein stability index": 1.87},
      {"variant": "FICQATGDPRPPIVWNKKGKKVSN", "note": "[K12P]", "protein stability index": 1.96},
      {"variant": "FICQATGDPRPNIVWNKKGKKVSN", "note": "[K12N]", "protein stability index": 1.95},
      {"variant": "FICQATGDPRPVIVWNKKGKKVSN", "note": "[K12V]", "protein stability index": 1.61},
      {"variant": "FICQATGDPRPDIVWNKKGKKVSN", "note": "[K12D]", "protein stability index": 1.18},
      {"variant": "FICQATGDPRPQIVWNKKGKKVSN", "note": "[K12Q]", "protein stability index": 1.94},
      {"variant": "FICQATGDPRPRIVWNKKGKKVSN", "note": "[K12R]", "protein stability index": 1.44},
      {"variant": "FICQATGDPRPEIVWNKKGKKVSN", "note": "[K12E]", "protein stability index": 1.52},
      {"variant": "FICQATGDPRPCIVWNKKGKKVSN", "note": "[K12C]", "protein stability index": 1.9},
      {"variant": "FICQATGDPRPLIVWNKKGKKVSN", "note": "[K12L]", "protein stability index": 3.35},
      {"variant": "FICQATGDPRPGIVWNKKGKKVSN", "note": "[K12G]", "protein stability index": 2.28},
      {"variant": "FICQATGDPRPHIVWNKKGKKVSN", "note": "[K12H]", "protein stability index": 1.86},
      {"variant": "FICQATGDPRPYIVWNKKGKKVSN", "note": "[K12Y]", "protein stability index": 1.41},
      {"variant": "FICQATGDPRPTIVWNKKGKKVSN", "note": "[K12T]", "protein stability index": 2.26},
      {"variant": "FICQATGDPRPMIVWNKKGKKVSN", "note": "[K12M]", "protein stability index": 1.58},
      {"variant": "FICQATGDPRPIIVWNKKGKKVSN", "note": "[K12I]", "protein stability index": 1.89},
      {"variant": "FICQATGDPRPKIVWPKKGKKVSN", "note": "[N16P]", "protein stability index": 1.75},
      {"variant": "FICQATGDPRPKIVWWKKGKKVSN", "note": "[N16W]", "protein stability index": 1.48},
      {"variant": "FICQATGDPRPKIVWSKKGKKVSN", "note": "[N16S]", "protein stability index": 2.24},
      {"variant": "FICQATGDPRPKIVWHKKGKKVSN", "note": "[N16H]", "protein stability index": 1.74},
      {"variant": "FICQATGDPRPKIVWMKKGKKVSN", "note": "[N16M]", "protein stability index": 1.74},
      {"variant": "FICQATGDPRPKIVWGKKGKKVSN", "note": "[N16G]", "protein stability index": 1.05},
      {"variant": "FICQATGDPRPKIVWQKKGKKVSN", "note": "[N16Q]", "protein stability index": 2.56},
      {"variant": "FICQATGDPRPKIVWAKKGKKVSN", "note": "[N16A]", "protein stability index": 1.72},
      {"variant": "FICQATGDPRPKIVWIKKGKKVSN", "note": "[N16I]", "protein stability index": 1.99},
      {"variant": "FICQATGDPRPKIVWEKKGKKVSN", "note": "[N16E]", "protein stability index": 2.75},
      {"variant": "FICQATGDPRPKIVWRKKGKKVSN", "note": "[N16R]", "protein stability index": 1.96},
      {"variant": "FICQATGDPRPKIVWKKKGKKVSN", "note": "[N16K]", "protein stability index": 2.25},
      {"variant": "FICQATGDPRPKIVWFKKGKKVSN", "note": "[N16F]", "protein stability index": 2.04},
      {"variant": "FICQATGDPRPKIVWLKKGKKVSN", "note": "[N16L]", "protein stability index": 1.91},
      {"variant": "FICQATGDPRPKIVWTKKGKKVSN", "note": "[N16T]", "protein stability index": 1.91},
      {"variant": "FICQATGDPRPKIVWCKKGKKVSN", "note": "[N16C]", "protein stability index": 1.73},
      {"variant": "FICQATGDPRPKIVWDKKGKKVSN", "note": "[N16D]", "protein stability index": 2.45},
      {"variant": "FICQATGDPRPKIVWVKKGKKVSN", "note": "[N16V]", "protein stability index": 1.37},
      {"variant": "FICQATGDPRPKIVWYKKGKKVSN", "note": "[N16Y]", "protein stability index": 1.89},
      {"variant": "FICQATGDPRPKIVWNKKHKKVSN", "note": "[G19H]", "protein stability index": 1.9},
      {"variant": "FICQATGDPRPKIVWNKKFKKVSN", "note": "[G19F]", "protein stability index": 2.51},
      {"variant": "FICQATGDPRPKIVWNKKIKKVSN", "note": "[G19I]", "protein stability index": 1.53},
      {"variant": "FICQATGDPRPKIVWNKKNKKVSN", "note": "[G19N]", "protein stability index": 1.56},
      {"variant": "FICQATGDPRPKIVWNKKEKKVSN", "note": "[G19E]", "protein stability index": 1.8},
      {"variant": "FICQATGDPRPKIVWNKKKKKVSN", "note": "[G19K]", "protein stability index": 1.87},
      {"variant": "FICQATGDPRPKIVWNKKAKKVSN", "note": "[G19A]", "protein stability index": 2.23},
      {"variant": "FICQATGDPRPKIVWNKKCKKVSN", "note": "[G19C]", "protein stability index": 1.26},
      {"variant": "FICQATGDPRPKIVWNKKPKKVSN", "note": "[G19P]", "protein stability index": 1.74},
      {"variant": "FICQATGDPRPKIVWNKKMKKVSN", "note": "[G19M]", "protein stability index": 2.22},
      {"variant": "FICQATGDPRPKIVWNKKDKKVSN", "note": "[G19D]", "protein stability index": 1.71},
      {"variant": "FICQATGDPNPKIVWNKKGKKVSN", "note": "[R10N]", "protein stability index": 1.83},
      {"variant": "FICQATGDPVPKIVWNKKGKKVSN", "note": "[R10V]", "protein stability index": 1.88},
      {"variant": "FICQATGDPIPKIVWNKKGKKVSN", "note": "[R10I]", "protein stability index": 2.08},
      {"variant": "FICQATGDPCPKIVWNKKGKKVSN", "note": "[R10C]", "protein stability index": 1.84},
      {"variant": "FICQATGDPPPKIVWNKKGKKVSN", "note": "[R10P]", "protein stability index": 2.41},
      {"variant": "FICQATGDPQPKIVWNKKGKKVSN", "note": "[R10Q]", "protein stability index": 2.06},
      {"variant": "FICQATGDPTPKIVWNKKGKKVSN", "note": "[R10T]", "protein stability index": 2},
      {"variant": "FICQATGDPKPKIVWNKKGKKVSN", "note": "[R10K]", "protein stability index": 2.95},
      {"variant": "FICQATGDPHPKIVWNKKGKKVSN", "note": "[R10H]", "protein stability index": 1.79},
      {"variant": "FICQATGDPLPKIVWNKKGKKVSN", "note": "[R10L]", "protein stability index": 1.83},
      {"variant": "FICQATGDPMPKIVWNKKGKKVSN", "note": "[R10M]", "protein stability index": 2.58},
      {"variant": "FICQATGDPAPKIVWNKKGKKVSN", "note": "[R10A]", "protein stability index": 1.98},
      {"variant": "FICQATGDPFPKIVWNKKGKKVSN", "note": "[R10F]", "protein stability index": 1.89},
      {"variant": "FICQATGDPSPKIVWNKKGKKVSN", "note": "[R10S]", "protein stability index": 1.81},
      {"variant": "FICQATGDPEPKIVWNKKGKKVSN", "note": "[R10E]", "protein stability index": 1.61},
      {"variant": "FICQATGDPDPKIVWNKKGKKVSN", "note": "[R10D]", "protein stability index": 1.82},
      {"variant": "FICQATGDPRMKIVWNKKGKKVSN", "note": "[P11M]", "protein stability index": 1.03},
      {"variant": "FICQATGDPRAKIVWNKKGKKVSN", "note": "[P11A]", "protein stability index": 2.34},
      {"variant": "FICQATGDPRKKIVWNKKGKKVSN", "note": "[P11K]", "protein stability index": 1.45},
      {"variant": "FICQATGDPRLKIVWNKKGKKVSN", "note": "[P11L]", "protein stability index": 3.08},
      {"variant": "FICQATGDPRHKIVWNKKGKKVSN", "note": "[P11H]", "protein stability index": 2.4},
      {"variant": "FICQATGDPRQKIVWNKKGKKVSN", "note": "[P11Q]", "protein stability index": 2.19},
      {"variant": "FICQATGDPRGKIVWNKKGKKVSN", "note": "[P11G]", "protein stability index": 2.04},
      {"variant": "FICQATGDPRRKIVWNKKGKKVSN", "note": "[P11R]", "protein stability index": 2.5},
      {"variant": "FICQATGDPRYKIVWNKKGKKVSN", "note": "[P11Y]", "protein stability index": 2.31},
      {"variant": "FICQATGDPRSKIVWNKKGKKVSN", "note": "[P11S]", "protein stability index": 2.18},
      {"variant": "FICQATGDPRIKIVWNKKGKKVSN", "note": "[P11I]", "protein stability index": 2.31},
      {"variant": "FICQATGDPRFKIVWNKKGKKVSN", "note": "[P11F]", "protein stability index": 1.52},
      {"variant": "FICQATGDPRWKIVWNKKGKKVSN", "note": "[P11W]", "protein stability index": 1.87}
    ]}
  ]
}
